Assay results from PMC10178869.

T1: E. coli Aquaporin Z (AqpZ) (E. coli), P60844
T1 chain: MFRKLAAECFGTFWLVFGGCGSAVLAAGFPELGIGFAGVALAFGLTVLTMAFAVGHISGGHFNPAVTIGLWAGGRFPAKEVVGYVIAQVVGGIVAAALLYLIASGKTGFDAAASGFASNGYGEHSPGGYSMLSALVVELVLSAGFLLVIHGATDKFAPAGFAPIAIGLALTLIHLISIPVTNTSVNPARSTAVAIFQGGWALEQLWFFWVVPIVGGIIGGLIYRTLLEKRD

B1: E. coli Aquaporin Z (AqpZ), P60844 1-231 (natural protein)
chain: T1 chain

Key:
[1] = molecular target: AqpZ nanodiscs (AqpZ, MSP1E3D1 and DOPC/POPG 4:1) (E. coli | not stated) (UniProt P60844); assay: mass photometry; 10 nM AqpZ nanodiscs in TEN buffer (300 mM NaCl); nanodisc with nanodisc
[2] = molecular target: T1, E. coli Aquaporin Z (AqpZ) (E. coli), …; assay: SDS-PAGE with or without heating; purified AqpZ nanodiscs (ND) or AqpZ in OG micelles, heated to 70 °C or unheated; conditions: remark: other sources report otherwise

Molecule | stoichiometry N [1] | stoichiometry N [2]
AqpZ nanodiscs (AqpZ, MSP1E3D1 and DOPC/POPG 4:1) (from UniProt P60844 1-231) (complex) | 2 | –
B1 | – | 4
